{"source": "patent US20240279288A1", "about": "“APPLICATION OF PLANT JAZ PROTEINS AND DERIVED POLYPEPTIDES IN PREVENTION AND TREATMENT OF HUMAN AND ANIMAL TUMORS” (ANYANG INSTITUTE OF SINO-COTTON INDUSTRY INNOVATION, priority 2021, published 2024)", "key": {"c-Myc-215aa": {"molecular_target": "T1, c-Myc-215aa (Homo sapiens, UniProt P01106)", "T1 construct": "expressed in transfected cells", "T1 sequence (P01106 1-215)": "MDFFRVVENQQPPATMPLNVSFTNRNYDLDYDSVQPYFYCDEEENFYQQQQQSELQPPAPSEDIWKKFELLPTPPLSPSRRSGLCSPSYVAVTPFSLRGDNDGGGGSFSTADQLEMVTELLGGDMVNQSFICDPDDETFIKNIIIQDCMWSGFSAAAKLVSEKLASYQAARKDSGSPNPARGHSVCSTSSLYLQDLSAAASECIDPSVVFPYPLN", "experiment": "Yeast two hybrid and LUC with c-Myc truncated to first 215 amino acids", "assay_type": "binding", "excerpt": "[…]"}, "[1]": {"tested_on": "cervical cancer cells Hela", "experiment": "CCK8 cell viability detection, Hela", "assay_type": "cell-based, human", "conditions": "CCK8, 24 h treatment; read-out: IC50, inhibition of Hela cells", "method": "(§1) CCK8 cell viability detection: cell suspension was seeded in 96-well plates at a concentration of 5×10^4 cells/ml (100 μL/well). The plates were placed in the incubator for pre-culture (at 37° C., 5% CO2), and control and protein agents were added to each well 24 h after seeding. The plates were then placed in the incubator for 24 h, followed by addition of 10 μL CCK8 solution into each well and incubation of the plates in the incubator for 0.5-2 h before the absorbance measurement at 450 nm using a microplate reader.\nAnalysis of effect of GhJAZ1 protein on the cell cycle and apoptosis of tumor cells"}, "[2]": {"tested_on": "breast epithelial cells (MCF10A)", "experiment": "CCK8 cell viability detection, MCF10A", "assay_type": "cell-based", "conditions": "with the increase of GhJAZ1 protein concentration", "method": "as §1\nWe constructed GhJAZ1 prokaryotic expression plasmid with His-tag to express proteins (see step 2 in Example 4), and then a GhJAZ1 protein, along with 6 His tags, which was approximately 30 KD in size was found by WB detection (A in FIG. 7). The purified GhJAZ1 protein was used to treat breast cancer cells (MCF7) and breast epithelial cells (MCF10A), and the cell viability was measured with CCK8."}, "GhCOI1": {"tested_on": "GhCOI1", "sequence (as listed by the source)": "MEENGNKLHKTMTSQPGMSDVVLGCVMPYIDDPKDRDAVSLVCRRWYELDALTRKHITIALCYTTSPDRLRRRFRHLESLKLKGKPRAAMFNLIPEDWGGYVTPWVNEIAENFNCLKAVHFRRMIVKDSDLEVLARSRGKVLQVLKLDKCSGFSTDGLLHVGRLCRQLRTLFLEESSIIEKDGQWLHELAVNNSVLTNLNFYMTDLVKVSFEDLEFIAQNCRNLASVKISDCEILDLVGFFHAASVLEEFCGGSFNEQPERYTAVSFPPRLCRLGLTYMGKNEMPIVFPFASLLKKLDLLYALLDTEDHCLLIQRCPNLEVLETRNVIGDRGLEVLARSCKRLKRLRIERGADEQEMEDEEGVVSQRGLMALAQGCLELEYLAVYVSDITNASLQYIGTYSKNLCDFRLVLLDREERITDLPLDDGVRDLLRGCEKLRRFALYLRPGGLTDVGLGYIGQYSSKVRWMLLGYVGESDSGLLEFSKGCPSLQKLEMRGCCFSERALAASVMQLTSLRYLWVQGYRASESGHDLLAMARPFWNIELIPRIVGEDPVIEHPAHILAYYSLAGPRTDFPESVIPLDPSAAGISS", "experiment": "Luciferase experiment in tobacco leaves with GhCOI1", "assay_type": "binding, cotton", "conditions": "no fluorescence on the control", "excerpt": "Method of the luciferase experiment: GhJAZ1 (corresponding encoding gene sequence set forth in SEQ ID No. 39) was subcloned into pCAMBIA-CLuc vector (Chen, H., et al. “Firefly Luciferase Complementation Imaging Assay for Protein-Protein Interactions in Plants.” Plant Physiology 146.2(2008):368-376.) between KpnI and SalI cleavage sites, and the transcription factors such as GhMYC2 (corresponding encoding gene sequence set forth in SEQ ID No. 72), GhNINJA (corresponding encoding gene sequence set forth in SEQ ID No. 74), and GhCOI1 (corresponding encoding gene sequence set forth in SEQ ID No. 80) were subcloned into pCAMBIA-NLuc (Chen, H., et al. “Firefly Luciferase Complementation Imaging Assay for Protein-Protein Interactions in Plants.” Plant Physiology 146.2(2008):368-376.) between KpnI and SalI cleavage sites, respectively. […] Luciferase substrates were applied at the infected leaves before taking images and placed in a dark room for at least 6 min to quench fluorescence, followed by observation on the Nightowl-II LB983 instrument, using IndigoBasic software under the luciferase-5 min setting conditions."}}, "note": "Entries after “also recorded” stand apart in the source; their conditions may differ."}
{"molecule": "GhJAZ1: cotton JAZ1 protein, gene number Gh_A05G0260, sequence SEQ ID No. 4; prokaryotically expressed with His tag, about 30 KD (protein, His tag, prokaryotically expressed with His tag, about 30 KD) MSSCSESTAMKPARSPEKPSFAQTCNLLSQYLKEKGSFGDLSLGMTCNVEANGTPVVPPPTMNLFPLNDKSDDVCGRNGGNPKNLTSMDLFPQQAGLASKDDSPNKLEPQTAPMTIFYGGQVIVFNDFPANKAKEIMLLASNSSSQSNNSFNPIPFTSSIARSPIESSIGVPPTSKPVHPAQRAVPGDLPIARRASLHRFLEKRKDRITAKAPYQINNSAAAPSLSGDNKSWLGLAAQSP", "values": [{"measurement": "interaction with first 215 amino acids truncated c-Myc", "setting": "c-Myc-215aa", "value": "strong interactions"}, {"measurement": "IC50", "setting": "[1]", "value": 553, "unit": "nM"}, {"measurement": "viability of MCF10A cells", "setting": "[2]", "value": "did not change significantly; also recorded: without inhibitory effect"}, {"measurement": "fluorescence with GhCOI1 after applying luciferase substrate", "setting": "GhCOI1", "value": "weaker fluorescence"}]}
